In a protein production outcome set (Wang et al. 2014):

Assay: label from the status in PepcDB records
With “MKLPLIMLTALIALTACTSSSTGRKQVMLFSDAELDKMGAASFEDMKKKTPISTDKATNDFVQCVAKSITKNVAKSVHQGDWEVVVFDSAQVNAFALPSGKIGVYTGILNVTENQDQLGAIIGHEVGHVIEHHSNERLSANKLQNMGMAAATAAVGLSDVENKGLWMAGLGLGLQYGVIMPYSRAHESEADIVGQDLMARSGFEPSASIKLWQNMAKLSKGAPAEFMSTHPSNKTRINQLTEHLPSAMTLYKTDSRPNCQKPKVIPSPKA” the protein production was “failed”. With “MKLRYLNILKEKLGREPTFVELQAFSVMWSEHCGYSHTKKYIRRLPKTGFEGNAGVVNLDDYYSVAFKIESHNHPSAIEPYNGAATGVGGIIRDVLAMGARPTAIFDSLHMSRIIDGIIEGIADYGNSIGVPTVGGELRISSLYAHNPLVNVLAAGVVRNDMLVDSKASRPGQVIVIFGGATGRDGIHGASFASEDLTGDKATKLSIQVGDPFAEKMLIEAFLEMVEEGLVEGAQDLGAGGVLSATSELVAKGNLGAIVHLDRVPLREPDMEPWEILISESQERMAVVTSPQKASRILEIARKHLLFGDVVAEVIEEPVYRVMYRNDLVMEVPVQLLANAPEEDIVEYTPGKIPEFKRVEFEEVNAREVFEQYDHMVGTDTVVPPGFGAAVMRIKRDGGYSLVTHSRADLALQDTYWGTLIAVLESVRKTLSVGAEPLAITNCVNYGDPDVDPVGLSAMMTALKNACEFSGVPVASGNASLYNTYQGKPIPPTLVVGMLGKVNPQKVAKPKPSKVFAVGWNDFELEREKELWRAIRKLSEEGAFILSSSQLLTRTHVETFREYGLKIEVKLPEVRPAHQMVLVFSERTPVVDVPVKEIGTLSR” the protein production was “not failed”. With “MKLSIVIVNYRVPYFLEQCLLSVRKSAQGIDTEVWVVDNNSGDGSVEYLQSRFPEVHFVANEENVGFSRANNQAIRLSKGQYVLLLNPDTLIGESTLRTVVDFMDSKPNAGGLGVKMLNGHGRFLPESKRGFPSPWVSFCKLSGLNRLFPHSSRFNRYHLSYLSRDEVHKVEVLSGAFMLMRREALDKVGLLDERFFMYGEDIDLSYRLILGGYDNYYYPTPILHYKGESSSVSDVKYLRSFYGAMGLFFDKYYRNRMNPLLHGLINVVIKARTALALMLRSLRKVPAAEKPAKIFYWHPSEGEAAISAYHDRSHILINTDEVTCDRLLLTMEKLADRKHTFHLTNDTTKRVISP” the protein production was “failed”. For “MKLTDRLLKIASLVSDGKKIADIGTDHGYIPVYLLKEGKVPFAVLADVNKGPLDNAHKEVIQNNLLDKVDLRLGSGIEILEIGEVEEVIIAGMGGILISELLEAKKEVAHNVEKLILQPMQAQEELRYYLLNNGYEILEEVLVREDFRIYEIIVAKYTGKNTIIEDEIYYEVGIKLLENKDSLFNDFIEKKIKTYSSIVNKLEGKNGEAIDKKRKESEVAIKKLENLIK”, the protein production was “not failed”. In the case of “MKLTIPTWLTLLRIVMIPVLVVVFYLPYTWTNFASAGVFALAAITDWLDGWVARRYHQYSAFGAFLDPVADKLMVAVALFLIVQGHPTPWMAFWAAVIVGREIAVSALREWMAEIGQRAKVRVAAIGKIKTTAQMVALLCLLYSVTPGQMPTHEIWLGNLIFRAGYWTLAIAALLTLWSGFQYLQAAWPSLRADEKAAISNKPKKIESNS”, the protein production is reported as “failed”. In the case of “MKLTLKNLSMAIMMSTIVMGSSAMAADSNEKIVIAHRGASGYLPEHTLPAKAMAYAQGADYLEQDLVMTKDDNLVVLHDHYLDRVTDVADRFPDRARKDGRYYAIDFTLDEIKSLKFTEGFDIENGKKVQTYPGRFPMGKSDFRVHTFEEEIEFVQGLNHSTGKNIGIYPEIKAPWFHHQEGKDIAAKTLEVLKKYGYTGKDDKVYLQCFDADELKRIKNELEPKMGMELNLVQLIAYTDWNETQQKQPDGSWVNYNYDWMFKPGAMKQVAEYADGIGPDYHMLIEETSQPGNIKLTGMVQDAQQNKLVVHPYTVRSDKLPEYTPDVNQLYDALYNKAGVNGLFTDFPDKAVKFLNKE”, the protein production is reported as “not failed”. For “MKLVKNLEIVESIFGDWDETIIWSCVQGIMGEVFVDSLDQPKSSLAKLGRKSSFGFLAGQPTLFLLEVCSGEDIILVPQHKGWSDLIESTYGQNAHSFKRYATKKDTLFERSRLEKFVTQLPNGFELRAIDEKVYNSCLEKEWSQDLVANYATYQYYKKQGIGYVVYYQGNIIAGASSYSTYKNGIEIEVDTHPDFRRRGLATIVAAQLILTCLDKGIYPSWDAHTRTSLNLSEKLGYEFSHEYIAYEID”, the protein production was “failed”. In the case of “MKLVLEGVDSFETLRVVGTFNCIDPDYVGSKRVTKKADVYAFEVILMELITGRKANYETLSVDEQNLVMWLRPKIKISTFLNLVDGTIATDKETIKRIKKIAKLAEYCTSQEVESRPLRASRTKSGNEVTSED”, the protein production is reported as “failed”. With “MKLVNVTNSYKQLVNKQLENTDAYFVKVYSAGNTTAVYSEAAHHVEVLIMNKNRRIRPTEVKEILAKLLKRLPKEAYDPDEISIIELNHVTEVSVPLKVSLME” the protein production was “failed”. In the case of “MKLVVVSAGLSVPSSTRLLADRLAKATAARVPAEVEVVELRDLAVEIAHNFTNGFPGRALAAAIGAVTEADGLIVVTPVFSASYSGLFKSFFDVLEQGVLAGKPVLIAATGGSARHSLVLEHALRPLFAHLRAVVVPTGVYAASEDWGAEGLAERIERAAGELAGLMTGLMSGVSAVGPARDAQPRAGAEVSADGPAAAPAEGSVPRPRETVAQSATAGRGSRTDGFQVVPFEQQLAALRTR”, the protein production is reported as “failed”. In the case of “MKMDTGALTFQQKIYWLVKQIPLGRVATYGQIAALCGWPRHGRYVGYALYRVAPNSDIPWHRVVNAQGKISYAPQRRGTDELQRWRLAAEGIIFTAGDRINLRRYQWQPPATVYQQLIWPEGAATDSAKALEHHHHHH”, the protein production is reported as “not failed”. In the case of “MKMKILGISFGTKNGNNDTMCKVALKGAKEAGAEVEFIQMSSINIKHCTGCCACVKTLLSGKGSMCVLKDDFEWLLDKMKDADGIVVSDPIFEEGASGLFHTIMDRFGPRADRGNNIIGTKVAEAIGGKIPDSRMLNDKVISFMGIGGSDWGTRVQCEHAMLALIPMWKVIDNAWFPWAKELVMDDTRLVQVHQIGLNIVEAAKDFEKASYQGEEGVCPHCHNRLFYLEPGTKKAICALCGIVGELDTISGKTIFSFPEEQLGHAHDTLPGKFIHGDDIKKMEGHYAEVRKTQEFKERKTSYNFIETLTKEKQAGLEHHHHHH”, the protein production is reported as “failed”. For “MKNDTAALAADIVDFWKKAGPDKWFDKDAAFDNHFHDRFRDAHFAAARRELDGWLEGAESSLALMLLLDQFPRNCFRGTAHMYATDPLARFFADEAIRRGHDQAVSEDLRVFFYLPFSHAEDIAAQQRACDLNQPLGGLYLHHAEEHRDIVERFGRFPHRNGILLRETTPEERQYLEEGGFSG”, the protein production was “not failed”. In the case of “MKNICFINGSPRSKKANSTLYLNLIDKSLDSKNYTKYYIDTTSSIKGDLESTFKTLLDADYIILAFPLYVYSMPSLLVRFLEDYYIYLKNKDTISQKTNLYAVVNCGFPDAKMNVEALKIVFNCCKKLNINFRFGIGIGAGEFVNFSKNNPLLNKLSSCVYKSINKITYDIENQVSIEINNIFVNPKIPRRLFFIFGHIFWKKWAKRNGIKISALFDKPLEHHHHHH”, the protein production is reported as “failed”. In the case of “MKNILPLMWVIILMFVISQGVSAKGKKEIPKSEYGSYIVIMDLNPAIAYEGDIKGFKATKPGKNKKINPKSANVRKYTSMLSKTHDAALAKANVKSKDKVHDYGIALNGFSAKMTHEQAVALSSQDGVAKVMPDVLRQKMTDNSPSFLDLGGPAGPWLKGYDGEGIVIGVIDTGIWPEHPSFTDDGSYSTPPILLDDSRPNCEFGNTGHRPDDVAFSCNNKLIGARQMLDTYRLIVGATSDEFDSARDEDGHGTHTSSTSGGNANVPANMLGNDYGLISGIAPRAHIVMYKGLGDLGGFGSDLAAAIDQAVADGVDVINYSIGSSSFAIGPDDVAFLFAENAGVFVATSNGNSGPAPATTGSPASTPWVTSVGASTQNRTYQGSASSVGEWEFFGASITAGTAELALIDSAEAGSELCIPGVLDPVAVAGKIVLCLRGAIARVDKSKAVNIAGGAGMILYNANDGESQVTDSHWVPSVHINNTDGLVIKGYISNDASTAVAQIMGGTYTEIDAPSMAGFSSRGPNLLSGDIIKPDVTAPGVNIIAGQTPASEGRGELFQMISGTSMSSPHVAGLFAMIKQAHPNWSPSTAKSALMTTAYQDVMKEDEATPADAFDMGAGHVNPGGKANKGSIFEPGLAYQAGLFEYAAYSCGAELGIFSPGTCGFLESLGIPTDPANLNLPSIGIANVIGSKTVYRSVTGVAKDSGWRTYSVDVDAPAGYEVSVLPASIKLKSGMSATYAVTITNTASPAGEWAHGSITWRDSNDHYSVYSPIAVKGALFEAPANITGSSETGSASIDVTFGYTGDYTASGYGLTAATVDIDSVVQDPDQIFDPGDTFSNAHAIVVSGAAYLRIAIPGVADPNADLDIFLLDSVGNIVGVSANGGTDELIEMELPGDDTYTLWVHGWSAPGGSTDYELYSWVVPMASGSLTVASAPSSATLGATETIGVDWTGATNGKWHFGVIGHSDAGGLIGATLVEVDNR”, the protein production is reported as “failed”. For “MKNKFIFITVVSILLIAAGIFTTIAMANANSVVVKAEVLNVRSGPGLAYDVTSQARKNEVLRVVGEENQWYKVQLDNGNSGWVASWLVENTDVSAASNSIAIVSSDGGLNVREKPSTSSTSLGLLNNGDQVTVTSQQNGWAQIQYNGKSAWVSSQYLTIRESVTKVDESELQTVTIRDDSTNIRNKPGRDGAVIEKANSGQGFAIQGVQGDWYKIRTTSGEEGYVANWVVDVSDKGQTSSPRSKTTKLSEATIVIDPGHGGNDPGAKGANGTIEKEMTLKTAKKLKEKLESRGAKVILTRNSDKYVSLKSRTNVAAENKADVFISIHFDSLEDSSKGVSGQTTYYYDNSDKSLAESINTTLGNDLPTTNRGSRVGDYYVVRENSQPAVLLELGYLSSAKDERNINSASYRSQIADSVTDGLSNYFSN”, the protein production was “failed”. With “MKNKSYYFLTIIRYAVYLLIGMCAVFYGELKNTEMYYFIVFFLMYIIVTQFRIYYLRNRKYVSVSMVVDLVLVCFMYSYVRNFSFLFLFISVLDSSIMLSKTQAYASGIICSVVIIIQNVKIPFSLKAGTNLINILFSILLIFTLVFIGDSFREEQKRKIEAQGLYDRLRESEEKLRGAYEKLERYSETVEELSILRERNRISREIHDSVGHTLSAVLMQLQALLYLIKSDKEESLKTVEEMTGFVRGGIENVRRTVRELKPTDFDRFEGVFAIEEMIRKYKKLTSADIRFILSKEKRSLSSDESFISYRVVQEALNNAIRHGKASLVEVSMQFNQDRLYIRIKDNGVGTDGIKKGFGMTGMEERVKKLGGNIEFYSERDKGFEVTVNLPKSSEEKNSIINY” the protein production was “failed”. With “MKNKTYYLSIIFTSLVCLFLFTKALGFILWINGAPIDKWVAWVGLFAIPIFIYYSFPGRSLKKTQKIVTIVIIIVQIIWLKWAINQSKYYVYVNSNNILPSPYIIQETPNSNTPISLGQRLLTNYTFYKSIHSYLYVRENVTKSDRGIVDWIKHFDSEIKEEEDDGRIYIETYKGKLFFK” the protein production was “failed”. In the case of “MKNLKRRVAVVTALALVAALTYVLWPRSESVHVTAYFPRTVGIYPGSDVRVLGVRIGEVEKITPEGDRVRVELKYDEGRRVPADSKAAIINSSVVSDRYVQLLPVYRKGPVLRNGAVIPESRTAVPVELDRVFGSLHTTADALGPQGANKDGSLSRLLGVSADNLDGQGENLNRTVEDLSQAVTTLSDGRKDLFGTVRNLQVFTAALSADDKSVRSFNTGLAEVAGQLAGERKDLADALKNLGTALGDVSAFVKNNKRSLNSNVKGLSKVTKVLVTQRAALAELLEVAPTGLSNLNNAYNPSAGTLDTRNNAQQAQDPAALMCSVLKTTGDEGGKNPDCKELKKLFDSLPKVPQGSAVTGTVDRTLGGILGASA”, the protein production is reported as “failed”. With “MKNLTSIRPNTSRPARLAALKQSFQDWNNTSDVMARLARRLSTTLSLEAQLSILAEEMTDMVPFDSLNYRHRIARQDFIFSTGMGGPHRCEYRLSLEGHQYGTLTLHRRQRFSEEELTGIEMMLSGAICHIRNACQFIAIEQTALTDSLTGIGNKRALDEALQRASAMADRHGAPWSLILCDLDHFKLINDNHGHVVGDHILARTAEKLEQALRNSDTVYRFGGEEFAILLPHTNEQEARDVADRIRGAIESIRVDGGETPLTVTASCGVAMHLTDEQPEQWLARADEALYRAKAAGRNCTRVFASIS” the protein production was “failed”.
